# B1: Ras-related protein Rab-5A (Homo sapiens), P20339 (parent)
# chain: MASRGATRPNGPNTGNKICQFKLVLLGESAVGKSSLVLRFVKGQFHEFQESTIGAAFLTQTVCLDDTTVKFEIWDTAGQERYHSLAPMYYRGAQAAIVVYDITNEESFARAKNWVKELQRQASPNIVIALSGNKADLANKRAVDFQEAQSYADDNSLLFMETSAKTSMNVNEIFMAIAKKLPKNEPQNPGANSARGRGVDLTEPTQPTRNQCCSN
# Variants of: B1
# Conditions: with p85a_bovin PIK3R1, P23727
# Sequence of p85a_bovin PIK3R1, P23727 (P23727 whole entry): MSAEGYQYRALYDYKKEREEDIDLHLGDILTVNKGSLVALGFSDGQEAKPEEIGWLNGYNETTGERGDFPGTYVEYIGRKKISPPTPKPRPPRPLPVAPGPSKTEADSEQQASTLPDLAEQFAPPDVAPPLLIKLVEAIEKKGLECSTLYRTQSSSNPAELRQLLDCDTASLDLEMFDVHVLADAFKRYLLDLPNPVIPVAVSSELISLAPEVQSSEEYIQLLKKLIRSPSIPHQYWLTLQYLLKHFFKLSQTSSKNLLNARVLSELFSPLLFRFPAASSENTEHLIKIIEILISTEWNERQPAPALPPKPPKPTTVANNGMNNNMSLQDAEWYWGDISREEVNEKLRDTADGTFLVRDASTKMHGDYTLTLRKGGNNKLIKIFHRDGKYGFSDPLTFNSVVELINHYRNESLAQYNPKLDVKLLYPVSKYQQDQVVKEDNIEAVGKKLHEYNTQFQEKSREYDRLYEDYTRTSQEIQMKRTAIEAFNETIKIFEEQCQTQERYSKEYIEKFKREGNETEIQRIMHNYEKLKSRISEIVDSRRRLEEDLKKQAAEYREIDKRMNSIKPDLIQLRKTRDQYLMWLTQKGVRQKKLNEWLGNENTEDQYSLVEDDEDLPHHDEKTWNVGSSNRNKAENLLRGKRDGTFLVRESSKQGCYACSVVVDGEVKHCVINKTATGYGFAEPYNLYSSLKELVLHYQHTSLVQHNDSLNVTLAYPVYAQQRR
row,effect of a mutation on the interaction,Variant
1,disrupting interaction,S34N

# Variants of: B1
# Conditions: with p85a_bovin PIK3R1, P23727
# Remark: another data set of the same source
row,effect of a mutation on the interaction,Variant
1,decreasing interaction,Q79L
